In publication PMC3444665 (Virology, 2012):
Where a chain is given by its changes, count along the chain named.

How the values were obtained:
Experiment in all cases: pull-down
GST-Agno (F31A) = molecular target: T1, GST-Agno (F31A) (JC virus (JCV Mad-1), UniProt P03086 1-71, F31A)
T1 sequence: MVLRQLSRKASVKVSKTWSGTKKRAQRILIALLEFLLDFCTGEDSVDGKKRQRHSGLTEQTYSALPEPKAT

GST-Agno (F39A) = molecular target: T2, GST-Agno (F39A) (JC virus (JCV Mad-1), UniProt P03086 1-71, F39A)
T2 sequence: T1 sequence with A31F, F39A

GST-Agno (F35A) = molecular target: T3, GST-Agno (F35A) (JC virus (JCV Mad-1), UniProt P03086 1-71, F35A)
T3 sequence: T1 sequence with A31F, F35A

Measured: fold decrease of the interaction against WT agnoprotein

B1: JCV large T-antigen in whole-cell extracts of HJC-15b cells (natural protein)
chain: MDKVLNREESMELMDLLGLDRSAWGNIPVMRKAYLKKCKELHPDKGGDEDKMKRMNFLYKKMEQGVKVAHQPDFGTWNSSEVPTYGTDEWESWWNTFNEKWDEDLFCHEEMFASDDENTGSQHSTPPKKKKKVEDPKDFPVDLHAFLSQAVFSNRTVASFAVYTTKEKAQILYKKLMEKYSVTFISRHGFGGHNILFFLTPHRHRVSAINNYCQKLCTFSFLICKGVNKEYLFYSALCRQPYAVVEESIQGGLKEHDFNPEEPEETKQVSWKLVTQYALETKCEDVFLLMGMYLDFQENPQQCKKCEKKDQPNHFNHHEKHYYNAQIFADSKNQKSICQQAVDTVAAKQRVDSIHMTREEMLVERFNFLLDKMDLIFGAHGNAVLEQYMAGVAWIHCLLPQMDTVIYDFLKCIVLNIPKKRYWLFKGPIDSGKTTLAAALLDLCGGKSLNVNMPLERLNFELGVGIDQFMVVFEDVKGTGAESRDLPSGHGISNLDCLRDYLDGSVKVNLERKHQNKRTQVFPPGIVTMNEYSVPRTLQARFVRQIDFRPKAYLRKSLSCSEYLLEKRILQSGMTLLLLLIWFRPVADFAAAIHERIVQWKERLDLEISMYTFSTMKANVGMGRPILDFPREEDSEAEDSGHGSSTESQSQCFSQVSEASGADTQENCTFHICKGFQCFKKPKTPPPK
> 3 fold: all assays above
